The record followed here is the supplement of paper PMC10899765.

Common to all, as to conditions: 20 nM; 72 h
Data set [1] has as its system MCF10A. Put plainly: one-nucleolus phenotype percent effect (relative to siNT 0% and siNOL11 100%); higher = more cells with one nucleolus (ribosome biogenesis inhibition). The protocol: (§1)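 After 72 h, cells were fixed and stained with Hoechst and anti-fibrillarin, and nucleoli per nucleus were counted with CellProfiler. Values are plate-adjusted percent effect for the one-nucleolus and 5+ nucleoli phenotypes, normalised to siNT (0%) and to the positive controls siNOL11 or siKIF11 (100%), as the mean of biological triplicates. Percent viability is the nuclei count relative to siNT.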

Data set [2] deals with MCF10A. The data set is described as follows: percent viability (nuclei count relative to siNT); higher = more viable cells. The protocol: as §1
Data set [3] has as its system MCF10A. Put plainly: 5+ nucleoli phenotype percent effect (relative to siNT 0% and siKIF11 100%); higher = more cells with five or more nucleoli. The protocol:
as §1

Take “UACAUGGAUGGAAACCUUCAAGC [hsa-miR-4802-3p]”: the “one-nucleolus phenotype percent effect” value in data set [1] is -8.74%. The sequence further displayed a percent viability in data set [2] of 70.6%. For the same sequence, the “5+ nucleoli phenotype percent effect” value in data set [3] is -3.05%.

In the case of “UUGCUAGUUGCACUCCUCUCUGU [hsa-miR-449c-3p]”, in data set [1], the “one-nucleolus phenotype percent effect” value stood at 7.23%. The sequence also had a percent viability in data set [2] of 27.2%. Also, in data set [3], the “5+ nucleoli phenotype percent effect” value was -15.1%.

For “UUUAGAUUGAACAUGAAGUUAG [hsa-miR-4760-5p]”, the “one-nucleolus phenotype percent effect” value in data set [1] was -20.8%. The percent viability in data set [2] came out at 83.5%. In addition, the “5+ nucleoli phenotype percent effect” value in data set [3] is 46.3%.

Take “UGCAAAAGUAAUUGCAGUUUUUG [hsa-miR-548g-5p]”: the “one-nucleolus phenotype percent effect” value in data set [1] is -17%. This sequence had a percent viability in data set [2] of 73.1%. In data set [3], the “5+ nucleoli phenotype percent effect” value was determined as 3.25%.

For the sequence ACUGGACUUGGUGUCAGAUGG [hsa-miR-378h], in data set [1], the “one-nucleolus phenotype percent effect” value is -14.6%. This sequence also had a percent viability in data set [2] of 80%. Further, the “5+ nucleoli phenotype percent effect” value in data set [3] was 41%.

Take UCCCUGGAGUUUCUUCUU [hsa-miR-4308]: the “one-nucleolus phenotype percent effect” value in data set [1] is -7.67%. In addition, the percent viability in data set [2] was 53.7%. Further, the “5+ nucleoli phenotype percent effect” value in data set [3] came to 27.5%.

Consider UGCUGUAUUGUCAGGUAGUGA [hsa-miR-4999-5p], for which the “one-nucleolus phenotype percent effect” value in data set [1] is -7.82%. In addition, the percent viability in data set [2] came out at 48.1%. Also, in data set [3], the “5+ nucleoli phenotype percent effect” value is -10.3%.

On to CCUGCGUGUUUUCUGUCCAA [hsa-miR-4520a-5p], for which the “one-nucleolus phenotype percent effect” value in data set [1] was found to be 3.67%. For the same sequence, the percent viability in data set [2] was 52.7%. Also, in data set [3], the “5+ nucleoli phenotype percent effect” value was -4.05%.

As to UGUUCCUCUGUCUCCCAGAC [hsa-miR-4326], in data set [1], the “one-nucleolus phenotype percent effect” value is 18.8%. The sequence further gave a percent viability in data set [2] of 32.4%. Further, the “5+ nucleoli phenotype percent effect” value in data set [3] is -25.5%.

On to AGGUAGAAUGAGGCCUGACAU [hsa-miR-4650-3p], for which the “one-nucleolus phenotype percent effect” value in data set [1] amounted to 7.9%. In data set [2], the percent viability turned out to be 33.4%. Also, the “5+ nucleoli phenotype percent effect” value in data set [3] was -12.9%.

As for AGGGCCCCCCCUCAAUCCUGU [hsa-miR-296-5p], in data set [1], the “one-nucleolus phenotype percent effect” value turned out to be 2.62%. The percent viability in data set [2] worked out at 49.5%. Further, the “5+ nucleoli phenotype percent effect” value in data set [3] is 11.6%.

CAAUUCUCAAAGGAGCCUCCC [hsa-miR-5571-5p]: in data set [1], the “one-nucleolus phenotype percent effect” value was 34%. In data set [2], this sequence displayed a percent viability of 32.7%. In data set [3], the “5+ nucleoli phenotype percent effect” value is -26.3%.

For UGACAGCGCCCUGCCUGGCUC [hsa-miR-2277-3p], the “one-nucleolus phenotype percent effect” value in data set [1] was found to be 2.24%. The percent viability in data set [2] is 79%. Further, the “5+ nucleoli phenotype percent effect” value in data set [3] was -19.4%.

Turning to AACCCGUAGAUCCGAUCUUGUG [hsa-miR-99a-5p], the “one-nucleolus phenotype percent effect” value in data set [1] stood at 7.7%. The sequence also displayed a percent viability in data set [2] of 48.2%. Besides, the “5+ nucleoli phenotype percent effect” value in data set [3] came out at 1.63%.

For UGGGGGUGUGGGGAGAGAGAG [hsa-miR-7110-5p], the “one-nucleolus phenotype percent effect” value in data set [1] turned out to be 6.58%. For the same sequence, the percent viability in data set [2] was determined as 40.9%. The “5+ nucleoli phenotype percent effect” value in data set [3] is -6.75%.

For UGACUUCUACCUCUUCCAAAG [hsa-miR-6505-3p], the “one-nucleolus phenotype percent effect” value in data set [1] is 46.6%. Also, the percent viability in data set [2] was determined as 33.6%. Also, the “5+ nucleoli phenotype percent effect” value in data set [3] was -48%.

Turning to UGUCAGUUUGUCAAAUACCCCA [hsa-miR-223-3p], the “one-nucleolus phenotype percent effect” value in data set [1] was -4.68%. The sequence further registered a percent viability in data set [2] of 86.9%. Also, the “5+ nucleoli phenotype percent effect” value in data set [3] turned out to be 7.19%.

Regarding ACACUUGUUGGGAUGACCUGC [hsa-miR-6500-3p], the “one-nucleolus phenotype percent effect” value in data set [1] is 22.5%. The percent viability in data set [2] was determined as 23.8%. Besides, in data set [3], the “5+ nucleoli phenotype percent effect” value was -37.8%.

Consider UGGUCUAGGAUUGUUGGAGGAG [hsa-miR-601], for which the “one-nucleolus phenotype percent effect” value in data set [1] amounted to 22.9%. This sequence also came in with a percent viability in data set [2] of 58.5%. The “5+ nucleoli phenotype percent effect” value in data set [3] is -3.95%.

As for “AGAUUGUUUCUUUUGCCGUGCA [hsa-miR-4445-5p]”, in data set [1], the “one-nucleolus phenotype percent effect” value was 34.7%. The sequence also showed a percent viability in data set [2] of 19.2%. Moreover, in data set [3], the “5+ nucleoli phenotype percent effect” value was -21.9%.
